Drawing on publication PMC4899731, this text covers percent detected in the pellet with F-actin for one substance.

The target in this experiment is F-actin (filamentous actin) of the Actin Binding Protein Biochem Kit (BK013, Cytoskeleton) (UniProt P60709). The experiment is described as follows: co-sedimentation; F-actin spin-down assay with the Actin Binding Protein Biochem Kit (BK013, Cytoskeleton), according to manufacturer instructions; ultracentrifugation, SDS-PAGE, Coomassie staining, signals quantified.

In turn, “cyclin A2-GST (glutathione S-transferase) (from UniProt P20248 1-432) (natural protein)” registered a percent detected in the pellet with F-actin of 37%.
